Assay results from paper PMC3788760.

Key:
[1] = molecular target: full-length human protein disulfide isomerase (PDI) (human) (UniProt P07237); assay: ITC; 25.0°C; VP-ITC; 200 µM Tau244–372 (or 40 µM full-length Tau) in the syringe injected into 8.1 µM PDI or fragment (or 3.24 µM PDI) in the cell; 10 mM HEPES pH 7.4, 100 mM NaCl, no DTT; single set of identical sites model
[2] = molecular target: human PDI fragment abb’xa’ (human); assay: as above
[3] = molecular target: a-domain of human PDI (human); assay: as above
[4] = molecular target: full-length human protein disulfide isomerase (PDI) (human) (UniProt P07237)
[5] = molecular target: human PDI fragment abb’xa’ (human)
[6] = molecular target: a-domain of human PDI (human)
[7] = molecular target: full-length human protein disulfide isomerase (PDI) (human) (UniProt P07237); assay: ITC; 37.0°C; VP-ITC; 200 µM Tau244–372 in the syringe injected into 8.1 µM full-length PDI or domain a in the cell; 10 mM HEPES pH 7.4, 100 mM NaCl, no DTT; single set of identical sites model
[8] = molecular target: a-domain of human PDI (human); assay: as above

Sequence of human Tau fragment Tau244–372 (P10636 561-689): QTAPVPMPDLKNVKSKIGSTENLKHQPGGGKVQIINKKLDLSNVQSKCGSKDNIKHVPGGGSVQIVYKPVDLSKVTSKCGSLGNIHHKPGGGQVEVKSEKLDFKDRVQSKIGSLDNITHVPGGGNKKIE

Kd [1]: 3.46 µM | dH [1]: -8.6 kcal/mol | stoichiometry N [1]: 0.8 | Kd [2]: 7.35 µM | dH [2]: -5.9 kcal/mol | stoichiometry N [2]: 0.97 | Kd [3]: 0.48 µM | dH [3]: -4 kcal/mol | stoichiometry N [3]: 0.489 | lag time of Tau244–372 fibrillization (ThT) with 100 g/l Ficoll 70, 20 µM full-length PDI (∼0 without PDI) [4]: 44.8 min | lag time of Tau244–372 fibrillization (ThT, 37°C, 10 µM Tau244–372, heparin, 1 mM DTT), 0–20 µM full-length PDI (184 min without PDI); value at 20 µM [4]: 242 min | rate constant k for the growth of Tau244–372 fibrils (ThT) with 100 g/l Ficoll 70, 20 µM full-length PDI (54.9 without PDI) [4]: 0.0314 min⁻¹ | rate constant k for the growth of Tau244–372 fibrils (ThT), 0–20 µM full-length PDI (falls from 36.7 without PDI); value at 20 µM [4]: 0.0224 min⁻¹ | t m (time to 50% of maximal ThT fluorescence) of Tau244–372 fibrillization, 0–20 µM full-length PDI (238.3 min without PDI); value at 20 µM [4]: 331 min | t m of Tau244–372 fibrillization (ThT) with 100 g/l Ficoll 70, 20 µM full-length PDI (11.6 min without PDI) [4]: 108 min | lag time of Tau244–372 fibrillization (ThT, 37°C), 0–20 µM abb’xa’ (184 min without PDI); value at 20 µM [5]: 247 min | rate constant k for the growth of Tau244–372 fibrils (ThT), 0–20 µM abb’xa’ (falls from 36.7 without PDI); value at 20 µM [5]: 0.0233 min⁻¹ | t m of Tau244–372 fibrillization (ThT), 0–20 µM abb’xa’ (238.3 min without PDI); value at 20 µM [5]: 333 min | lag time of Tau244–372 fibrillization (ThT, 37°C), 0–20 µM domain a (184 min without PDI); value at 20 µM [6]: 253 min | rate constant k for the growth of Tau244–372 fibrils (ThT), 0–20 µM domain a (falls from 36.7 without PDI); value at 20 µM [6]: 0.0176 min⁻¹ | t m of Tau244–372 fibrillization (ThT), 0–20 µM domain a (238.3 min without PDI); value at 20 µM [6]: 366 min | Kd [7]: 4.83 µM | dH [7]: -9.27 kcal/mol | stoichiometry N [7]: 1.02 | Kd [8]: 1.34 µM | dH [8]: -4.34 kcal/mol | stoichiometry N [8]: 0.56
Substance: human Tau fragment Tau244–372 (from UniProt P10636-8 244-372) (domain or fragment)
